{"source": "paper PMC4811774", "key": {"[1]": {"target": "Toc75 POTRA-His (protein fragment encompassing all three Toc75 POTRA domains and a C-terminal hexahistidine tag) (Arabidopsis thaliana) (UniProt Q9STE8)", "assay": "pull-down; solid phase binding: increasing amounts of POTRA-His immobilised on Ni-NTA resin, incubated with in vitro translated 35S-labelled proteins in HMK buffer (50 mM Hepes-KOH pH 7.5, 2 mM MgCl2, 40 mM KOAc) with 10 mM imidazole and 0.1% Triton X-100, 30 min, 23°C; phosphorimaging"}, "[2]": {"target": "TOC translocons in TOC75ΔP1-2#2 chloroplasts (Arabidopsis thaliana | Arabidopsis thaliana (endogenous in chloroplasts)) (UniProt Q9STE8)", "assay": "other; apparent Kd, isolated chloroplasts, 0.1 mM ATP and GTP", "settings": "natural protein"}, "[3]": {"target": "TOC translocons in TOC75 chloroplasts (Arabidopsis thaliana | Arabidopsis thaliana (endogenous in chloroplasts)) (UniProt Q9STE8)", "assay": "saturation binding to isolated chloroplasts; apparent; increasing amounts of urea-denatured preSSU-FLAG-HIS with 10^7 isolated chloroplasts, 0.1 mM ATP and GTP, 26°C, 5 min (early import intermediate); chloroplasts reisolated through Percoll, anti-FLAG immunoblot, non-linear regression"}, "[4]": {"target": "TOC translocons in TOC75ΔP1#2 chloroplasts (Arabidopsis thaliana | Arabidopsis thaliana (endogenous in chloroplasts)) (UniProt Q9STE8)", "assay": "saturation binding to isolated chloroplasts; apparent; increasing amounts of urea-denatured preSSU-FLAG-HIS with 10^7 isolated chloroplasts, 0.1 mM ATP and GTP, 26°C, 5 min (early import intermediate); chloroplasts reisolated through Percoll, anti-FLAG immunoblot, non-linear regression"}}, "data": [{"substance": "[35S]preSSU (from UniProt P10795 1-180) (natural protein)", "values": [{"measurement": "maximum binding, percent of added radiolabeled protein", "setting": "[1]", "result": 77, "unit": "%"}]}, {"substance": "preSSU-FLAG-HIS (from UniProt P10795 55-180)", "values": [{"measurement": "Kd", "setting": "[2]", "result": 126, "unit": "nM"}]}, {"substance": "preSSU-FLAG-HIS (from UniProt P10795 55-180) (natural protein)", "values": [{"measurement": "Kd", "setting": "[3]", "result": 159, "unit": "nM"}, {"measurement": "Kd", "setting": "[4]", "result": 188, "unit": "nM"}]}]}
